In patent US20120142040:

Test system: H3K4me2-biotin peptide (1ARTKme2QTARKSTGGKAPRKQLYKbiotin)
Sequence (chain, as listed by the source): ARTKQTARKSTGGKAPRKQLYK

GST-LSD1 (prepared in-house) was tested, and the “shift of the mass spectra after the demethylase assay (MassSQUIRM, MALDI mass spectrometry)” value was “Upon addition of LSD1, we observed a shift of spectra to greater mass, indicating a mixed population of methylation states”.
